Tests used:
Flag-tagged human IRF3 = biological target: T1, Flag-tagged human IRF3 (human, UniProt Q14653 1-427); experiment: co-immunoprecipitation from HEK293T lysates: IP anti-C7, blot anti-Flag
T1 construct: also called transcription factor IRF3; not shown: Flag tag
T1 sequence: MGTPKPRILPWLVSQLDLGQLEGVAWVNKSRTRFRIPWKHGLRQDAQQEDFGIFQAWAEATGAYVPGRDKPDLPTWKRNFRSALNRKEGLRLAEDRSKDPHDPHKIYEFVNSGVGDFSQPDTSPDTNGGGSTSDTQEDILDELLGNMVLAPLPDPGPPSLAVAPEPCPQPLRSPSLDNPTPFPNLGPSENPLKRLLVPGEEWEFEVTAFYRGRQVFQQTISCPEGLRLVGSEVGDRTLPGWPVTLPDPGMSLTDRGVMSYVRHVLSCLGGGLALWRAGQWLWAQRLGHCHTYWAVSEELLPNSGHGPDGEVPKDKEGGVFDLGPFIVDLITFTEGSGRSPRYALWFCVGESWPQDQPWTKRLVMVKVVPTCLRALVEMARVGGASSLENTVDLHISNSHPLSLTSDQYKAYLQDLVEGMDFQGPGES

Flag-tagged human STAT2 = biological target: T2, Flag-tagged human STAT2 (human, UniProt P52630 1-851); experiment: co-immunoprecipitation from HEK293T lysates: IP anti-HA, blot anti-Flag
T2 construct: also called flag-STAT2; not shown: Flag tag

Flag-tagged human STAT1 = biological target: T3, Flag-tagged human STAT1 (human, UniProt P42224 1-750); experiment: as above
T3 construct: also called flag-STAT1; not shown: Flag tag
T3 sequence: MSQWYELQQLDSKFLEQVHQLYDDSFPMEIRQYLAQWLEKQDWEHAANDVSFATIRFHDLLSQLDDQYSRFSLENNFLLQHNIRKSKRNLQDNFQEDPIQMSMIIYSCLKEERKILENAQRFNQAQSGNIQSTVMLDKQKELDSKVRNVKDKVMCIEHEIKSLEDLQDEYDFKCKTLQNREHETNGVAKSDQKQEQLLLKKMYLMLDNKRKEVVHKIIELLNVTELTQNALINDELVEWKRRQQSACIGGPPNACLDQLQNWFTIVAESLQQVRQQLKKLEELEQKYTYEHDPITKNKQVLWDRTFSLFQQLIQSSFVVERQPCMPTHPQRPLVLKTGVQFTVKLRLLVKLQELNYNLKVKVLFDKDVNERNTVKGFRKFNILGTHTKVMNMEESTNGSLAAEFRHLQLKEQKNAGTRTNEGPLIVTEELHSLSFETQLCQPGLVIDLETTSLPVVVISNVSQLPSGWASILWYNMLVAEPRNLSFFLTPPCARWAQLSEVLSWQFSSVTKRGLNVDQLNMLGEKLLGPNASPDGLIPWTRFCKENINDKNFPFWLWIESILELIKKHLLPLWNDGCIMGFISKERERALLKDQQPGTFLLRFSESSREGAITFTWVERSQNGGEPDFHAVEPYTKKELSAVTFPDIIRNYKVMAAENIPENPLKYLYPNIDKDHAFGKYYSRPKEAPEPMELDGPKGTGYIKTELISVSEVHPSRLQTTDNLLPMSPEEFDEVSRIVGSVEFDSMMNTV

| Binder | binding result (Flag-tagged human IRF3) | binding result (Flag-tagged human STAT2) | binding result (Flag-tagged human STAT1) |
| --- | --- | --- | --- |
| vaccinia virus C7 protein (other, also called vaccinia C7; C7L gene product) MGIQHEFDIIINGDIALRNLQLHKGDNYGCKLKIISNDYKKLKFRFIIRPDWSEIDEVKGLTVFANNYAVKVNKVDDTFYYVIYEAVIHLYNKKTEILIYSDDENELFKHYYPYISLNMISKKYKVKEENYSSPYIEHPLIPYRDYESMD | binds |  |  |
| HA-tagged vaccinia C7 (other, also called C7-HA; HA-tagged C7) MGIQHEFDIIINGDIALRNLQLHKGDNYGCKLKIISNDYKKLKFRFIIRPDWSEIDEVKGLTVFANNYAVKVNKVDDTFYYVIYEAVIHLYNKKTEILIYSDDENELFKHYYPYISLNMISKKYKVKEENYSSPYIEHPLIPYRDYESMD |  | binds | no binding |

Source: patent publication US20200339959A1 (Memorial Sloan Kettering, published 2020)
